± gives the uncertainty stated by the source.
B1: RAS guanyl-releasing protein 1, residues 539 to 593; numbered along this chain, O95267 (parent)
chain: GFPHNFQETTYLKPTFCDNCAGFLWGVIKQGYRCKDCGMNCHKQCKDLVVFECKK

Variants of: B1
Assay: abundance fitness (aPCA) (normalised: wild type 0, dead -1); higher = more abundant; growth selection in yeast, the domain comes from the species named
Settings: Homo sapiens

Variant | abundance fitness
GFPHNFQETTYLKPTFCDNCAGFLWGVIKQGYRCKDCGMNCHKQCKDLRVFECKK [V49R] | 0.094 ± 0.1
GFPHNFQETTYLKPTFCDNCAGFLWGVIKQGYRCKDCGMNCHKQCKDLTVFECKK [V49T] | -0.055 ± 0.1
GFPHNFQETTYLKPTFCDNCAGFLWGVIKQGYRCKDCGMNCHKQCKDLWVFECKK [V49W] | 0.038 ± 0.14
GFPHNFQETTYLKPTFCDNCAGFLWGVIKQGYRCKDCGMNCHKQCKDLVAFECKK [V50A] | -0.064 ± 0.1
GFPHNFQETTYLKPTFCDNCAGFLWGVIKQGYRCKDCGMNCHKQCKDLVCFECKK [V50C] | 0.042 ± 0.06
GFPHNFQETTYLKPTFCDNCAGFLWGVIKQGYRCKDCGMNCHKQCKDLVDFECKK [V50D] | -0.208 ± 0.13
GFPHNFQETTYLKPTFCDNCAGFLWGVIKQGYRCKDCGMNCHKQCKDLVEFECKK [V50E] | 0.037 ± 0.061
GFPHNFQETTYLKPTFCDNCAGFLWGVIKQGYRCKDCGMNCHKQCKDLVGFECKK [V50G] | -0.076 ± 0.071
GFPHNFQETTYLKPTFCDNCAGFLWGVIKQGYRCKDCGMNCHKQCKDLVHFECKK [V50H] | -0.214 ± 0.15
GFPHNFQETTYLKPTFCDNCAGFLWGVIKQGYRCKDCGMNCHKQCKDLVIFECKK [V50I] | -0.541 ± 0.23
GFPHNFQETTYLKPTFCDNCAGFLWGVIKQGYRCKDCGMNCHKQCKDLVKFECKK [V50K] | -0.383 ± 0.15
GFPHNFQETTYLKPTFCDNCAGFLWGVIKQGYRCKDCGMNCHKQCKDLVLFECKK [V50L] | 0.07 ± 0.079
GFPHNFQETTYLKPTFCDNCAGFLWGVIKQGYRCKDCGMNCHKQCKDLVMFECKK [V50M] | 0.043 ± 0.11
GFPHNFQETTYLKPTFCDNCAGFLWGVIKQGYRCKDCGMNCHKQCKDLVNFECKK [V50N] | -0.228 ± 0.11
GFPHNFQETTYLKPTFCDNCAGFLWGVIKQGYRCKDCGMNCHKQCKDLVPFECKK [V50P] | -0.157 ± 0.12
GFPHNFQETTYLKPTFCDNCAGFLWGVIKQGYRCKDCGMNCHKQCKDLVQFECKK [V50Q] | 0.06 ± 0.1
GFPHNFQETTYLKPTFCDNCAGFLWGVIKQGYRCKDCGMNCHKQCKDLVRFECKK [V50R] | -0.11 ± 0.068
GFPHNFQETTYLKPTFCDNCAGFLWGVIKQGYRCKDCGMNCHKQCKDLVSFECKK [V50S] | -0.03 ± 0.057
GFPHNFQETTYLKPTFCDNCAGFLWGVIKQGYRCKDCGMNCHKQCKDLVWFECKK [V50W] | -0.121 ± 0.071
GFPHNFQETTYLKPTFCDNCAGFLWGVIKQGYRCKDCGMNCHKQCKDLVYFECKK [V50Y] | -0.231 ± 0.12
GFPHNFQETTYLKPTFCDNCAGFLWGVIKQGYRCKDCGMNCHKQCKDLVVAECKK [F51A] | -0.074 ± 0.083
GFPHNFQETTYLKPTFCDNCAGFLWGVIKQGYRCKDCGMNCHKQCKDLVVCECKK [F51C] | -0.061 ± 0.12
GFPHNFQETTYLKPTFCDNCAGFLWGVIKQGYRCKDCGMNCHKQCKDLVVDECKK [F51D] | -0.043 ± 0.15
GFPHNFQETTYLKPTFCDNCAGFLWGVIKQGYRCKDCGMNCHKQCKDLVVEECKK [F51E] | -0.044 ± 0.098

Variant | abundance fitness
GFPHNFQETTYLKPTFCDNCAGFLWGVIKQGYRCKDCGMNCHKQCKDLVVGECKK [F51G] | 0.033 ± 0.06
GFPHNFQETTYLKPTFCDNCAGFLWGVIKQGYRCKDCGMNCHKQCKDLVVHECKK [F51H] | -0.426 ± 0.31
GFPHNFQETTYLKPTFCDNCAGFLWGVIKQGYRCKDCGMNCHKQCKDLVVKECKK [F51K] | -0.155 ± 0.085
GFPHNFQETTYLKPTFCDNCAGFLWGVIKQGYRCKDCGMNCHKQCKDLVVLECKK [F51L] | -0.053 ± 0.067
GFPHNFQETTYLKPTFCDNCAGFLWGVIKQGYRCKDCGMNCHKQCKDLVVMECKK [F51M] | -0.029 ± 0.054
GFPHNFQETTYLKPTFCDNCAGFLWGVIKQGYRCKDCGMNCHKQCKDLVVNECKK [F51N] | 0.256 ± 0.11
GFPHNFQETTYLKPTFCDNCAGFLWGVIKQGYRCKDCGMNCHKQCKDLVVPECKK [F51P] | -0.07 ± 0.064
GFPHNFQETTYLKPTFCDNCAGFLWGVIKQGYRCKDCGMNCHKQCKDLVVQECKK [F51Q] | 0.002 ± 0.091
GFPHNFQETTYLKPTFCDNCAGFLWGVIKQGYRCKDCGMNCHKQCKDLVVRECKK [F51R] | -0.008 ± 0.047
GFPHNFQETTYLKPTFCDNCAGFLWGVIKQGYRCKDCGMNCHKQCKDLVVSECKK [F51S] | 0.011 ± 0.082
GFPHNFQETTYLKPTFCDNCAGFLWGVIKQGYRCKDCGMNCHKQCKDLVVTECKK [F51T] | -0.435 ± 0.14
GFPHNFQETTYLKPTFCDNCAGFLWGVIKQGYRCKDCGMNCHKQCKDLVVVECKK [F51V] | -0.046 ± 0.077
GFPHNFQETTYLKPTFCDNCAGFLWGVIKQGYRCKDCGMNCHKQCKDLVVWECKK [F51W] | -0.09 ± 0.094
GFPHNFQETTYLKPTFCDNCAGFLWGVIKQGYRCKDCGMNCHKQCKDLVVYECKK [F51Y] | 0.05 ± 0.086
GFPHNFQETTYLKPTFCDNCAGFLWGVIKQGYRCKDCGMNCHKQCKDLVVFACKK [E52A] | -0.068 ± 0.11
GFPHNFQETTYLKPTFCDNCAGFLWGVIKQGYRCKDCGMNCHKQCKDLVVFCCKK [E52C] | -0.115 ± 0.081
GFPHNFQETTYLKPTFCDNCAGFLWGVIKQGYRCKDCGMNCHKQCKDLVVFDCKK [E52D] | 0.104 ± 0.092
GFPHNFQETTYLKPTFCDNCAGFLWGVIKQGYRCKDCGMNCHKQCKDLVVFFCKK [E52F] | 0.184 ± 0.12
GFPHNFQETTYLKPTFCDNCAGFLWGVIKQGYRCKDCGMNCHKQCKDLVVFGCKK [E52G] | -0.031 ± 0.045
GFPHNFQETTYLKPTFCDNCAGFLWGVIKQGYRCKDCGMNCHKQCKDLVVFHCKK [E52H] | -0.053 ± 0.13
GFPHNFQETTYLKPTFCDNCAGFLWGVIKQGYRCKDCGMNCHKQCKDLVVFICKK [E52I] | -0.063 ± 0.11
GFPHNFQETTYLKPTFCDNCAGFLWGVIKQGYRCKDCGMNCHKQCKDLVVFKCKK [E52K] | -0.057 ± 0.092
GFPHNFQETTYLKPTFCDNCAGFLWGVIKQGYRCKDCGMNCHKQCKDLVVFLCKK [E52L] | -0.168 ± 0.087
GFPHNFQETTYLKPTFCDNCAGFLWGVIKQGYRCKDCGMNCHKQCKDLVVFMCKK [E52M] | -0.121 ± 0.053

Reference: the Human Domainome abundance scans (Beltran et al. 2025)
